Laboratory results: patent US20220024992A1, “COMPOSITIONS AND METHODS COMPRISING LYSOCINS AS BIOENGINEERED ANTIMICROBIALS FOR USE IN TARGETING GRAM-NEGATIVE BACTERIA” (The Rockefeller University, priority 2018, published 2022)
Converted amounts (≈) assume the structure as drawn. Like-named read-outs stand apart in the source and are kept apart here.

Legend:
[1] = target: FpvAII receptor (Pseudomonas aeruginosa); experiment: cell-based or functional assay
[2] = target: FpvAIII receptor (Pseudomonas aeruginosa); experiment: cell-based or functional assay
[3] = target: ferripyoverdine A type I (FpvAI) receptor (Pseudomonas aeruginosa) (UniProt P48632); experiment: cell-based or functional assay
P. aeruginosa strains [4] = experiment: MIC and MBC, modified CLSI broth microdilution, CAA medium; format: cell-based; details: strain 453, FpvA type I
Description: The MIC and MBC values were calculated using a modified version of the broth microdilution assay as previously described by the Clinical and Laboratory Standards Institute (CLSI) (45). The specific modifications were to the bacterial concentration and growth medium used. […] CAA medium was used for Gram-negative bacteria to simulate low iron conditions. Alternatively, MHB was used for Gram-positive bacteria due to their inability to grow in CAA medium. Bacterial growth was assessed by measuring the OD600 nm using a SpectraMax M5 microplate reader (Molecular Devices). The MIC was defined as the lowest antimicrobial concentration that inhibits bacterial growth. To determine the MBC, the contents from each well originating from the MIC microtiter plate was plated on CAA agar to quantitate bacterial viability. The MBC was defined as the lowest antimicrobial concentration required to kill ≥99.9% of the initial bacterial inoculum. Growth and sterility controls were included.

P. aeruginosa strain 453 = experiment: Cell viability assays with 0.5 μM antimicrobial
Description: P. aeruginosa strain 453 were grown under iron-depleted conditions (see Bacterial Strains and Growth Conditions). The bacteria were harvested, washed and resuspended in fresh CAA medium with 0.5 mg/ml EDDHA. Using a 96-well flat-bottomed microtiter plate, the bacteria at ˜10^6 CFU/ml were incubated statically at 37° C. with either growth medium only (untreated control) or 0.5 μM purified antimicrobial. A 2 h incubation was used for the single time point experiments, whereas a 4 or 6 h incubation was used for the multiple time point assays. At various time points, an aliquot was removed from each sample, serially diluted and plated on CAA agar. After incubating the agar plates for up to 48 h at 37° C., colonies were counted in order to quantitate the CFU/ml concentration of surviving bacterial cells. Modifications were introduced to the aforementioned cell viability assay protocol for the experiment using P. aeruginosa grown in the presence of varying free iron concentrations. First, P. aeruginosa strain 453 were grown using iron-depleted or iron-rich conditions (CAA medium supplemented with 100 μM FeSO4) at 37° C. with aeration for a total of 16-18 h and subsequently assayed for lysocin sensitivity in PBS, pH 7.4. For the experiment analyzing lysocin activity in the presence of lung surfactant or serum, P. aeruginosa were incubated with or without lysocin in beractant ([sequence]; Abbvie) or HuS diluted 1:1 with 20 mM sodium phosphate, pH 7.0.

[5] = tested on: pseudomonal PG (autoclaved P. aeruginosa); experiment: Muralytic plate lysis assay on autoclaved Pseudomonas; format: biochemical; details: 25 pmol spotted
P. aeruginosa strains [6] = experiment: MIC, CLSI broth microdilution in CAA medium with EDDHA
Description: The FpvA receptor type for all P. aeruginosa strains used was determined using multiplex PCR, as previously described (67). […] CAA medium consisting of 0.5 mg/ml EDDHA was used instead of MHB. All P. aeruginosa strains were initially inoculated in CAA medium and grown overnight at 37° C. with aeration. The bacteria were then pelleted, washed and resuspended in CAA medium with EDDHA. Using a 96-well U-bottom microtiter plate, P. aeruginosa at a final concentration of 5×10^5 CFU/ml were incubated statically at 37° C. with 0.002-256 μg/ml lysocin in CAA medium with EDDHA for a total of 48 h. Growth (bacteria incubated in growth medium absent lysocin) and sterility controls (growth medium only) were included for each dataset. At the culmination of the experiment, each plate was visually inspected for bacterial growth. All samples were assayed in triplicate. The MIC was defined as the lowest concentration of lysocin that inhibited observable bacterial growth.

[7] = Pseudomonas aeruginosa, read-out: MBC
[8] = Pseudomonas aeruginosa, read-out: MIC

Q: How did the MIC, P. aeruginosa strain 445 (FpvAII) [1] turn out when PyS2-I-GN3 lysocin was run?
A: The MIC, P. aeruginosa strain 445 (FpvAII) was greater than 256 µg/mL.

Q: What about the MIC, P. aeruginosa strain 448 (FpvAII) [1] of the same molecule?
A: The MIC, P. aeruginosa strain 448 (FpvAII) was greater than 256 µg/mL.

Q: What about the MIC, P. aeruginosa strain 451 (FpvAII) [1] of the same molecule?
A: Its MIC, P. aeruginosa strain 451 (FpvAII) is greater than 256 µg/mL.

Q: What about the MIC, P. aeruginosa strain AR468 (FpvAII) [1] of the same molecule?
A: The MIC, P. aeruginosa strain AR468 (FpvAII) was greater than 256 µg/mL.

Q: And the MIC, P. aeruginosa strain 443 (FpvAIII) [2]?
A: Its MIC, P. aeruginosa strain 443 (FpvAIII) is greater than 256 µg/mL.

Q: And the MIC, P. aeruginosa strain 450 (FpvAIII) [2]?
A: The MIC, P. aeruginosa strain 450 (FpvAIII) was greater than 256 µg/mL.

Q: And the MIC, P. aeruginosa strain AR471 (FpvAIII) [2]?
A: The MIC, P. aeruginosa strain AR471 (FpvAIII) was greater than 256 µg/mL.

Q: What about the MIC, P. aeruginosa strain 447 (FpvAI) [3] of the same molecule?
A: Its MIC, P. aeruginosa strain 447 (FpvAI) is 8 µg/mL.

Q: And the MIC, P. aeruginosa strain 453 (FpvAI) [3]?
A: The MIC, P. aeruginosa strain 453 (FpvAI) was 4 µg/mL.

Q: And the MIC, P. aeruginosa strain AR465 (FpvAI) [3]?
A: Its MIC, P. aeruginosa strain AR465 (FpvAI) is 4 µg/mL.

Q: What about the MIC, P. aeruginosa strain AR469 (FpvAI) [3] of the same molecule?
A: The MIC, P. aeruginosa strain AR469 (FpvAI) was 8 µg/mL.

Q: And the MIC, P. aeruginosa strain AR470 (FpvAI) [3]?
A: The MIC, P. aeruginosa strain AR470 (FpvAI) was 4 µg/mL.

Q: And the MIC, P. aeruginosa strain AR474 (FpvAI) [3]?
A: Its MIC, P. aeruginosa strain AR474 (FpvAI) is 4 µg/mL.

Q: What about the MIC, P. aeruginosa strain PAO1 (FpvAI) [3] of the same molecule?
A: Its MIC, P. aeruginosa strain PAO1 (FpvAI) is 8 µg/mL.

Q: Which MBC (P. aeruginosa strains [4]; [7]) does the source give for NC[C@H]1O[C@H](O[C@H]2[C@H](O)[C@@H](O[C@H]3O[C@H](CO)[C@@H](O)[C@H](N)[C@H]3O)[C@H](N)C[C@@H]2N)[C@H](N)C[C@@H]1O [Tobramycin, tobramycin, reference compound] here?
A: Its MBC is 0.25 µg/mL (≈ 0.535 µM).

Q: And the MIC (P. aeruginosa strains [4]; [8])?
A: The MIC was 0.125 µg/mL (≈ 0.267 µM).

Q: Which results are given for PyS2-I-GN4 lysocin?
A: MIC, P. aeruginosa strain 445 (FpvAII) [1]: > 256 µg/mL; MIC, P. aeruginosa strain 448 (FpvAII) [1]: > 256 µg/mL; MIC, P. aeruginosa strain 451 (FpvAII) [1]: > 256 µg/mL; MIC, P. aeruginosa strain AR468 (FpvAII) [1]: > 256 µg/mL; MIC, P. aeruginosa strain 443 (FpvAIII) [2]: > 256 µg/mL; MIC, P. aeruginosa strain 450 (FpvAIII) [2]: > 256 µg/mL; MIC, P. aeruginosa strain AR471 (FpvAIII) [2]: > 256 µg/mL; MIC, P. aeruginosa strain 447 (FpvAI) [3]: 4 µg/mL; MIC, P. aeruginosa strain 453 (FpvAI) [3]: 0.25 µg/mL; MIC, P. aeruginosa strain AR465 (FpvAI) [3]: 4 µg/mL; MIC, P. aeruginosa strain AR469 (FpvAI) [3]: 8 µg/mL; MIC, P. aeruginosa strain AR470 (FpvAI) [3]: 8 µg/mL; MIC, P. aeruginosa strain AR474 (FpvAI) [3]: 4 µg/mL; MIC, P. aeruginosa strain PAO1 (FpvAI) [3]: 4 µg/mL

Q: Which results are given for PyS2-GN4 lysocin?
A: MIC, P. aeruginosa strain 445 (FpvA type II) [1]: > 256 µg/mL; MIC, P. aeruginosa strain 446 (FpvA type II) [1]: > 256 µg/mL; MIC, P. aeruginosa strain 448 (FpvA type II) [1]: > 256 µg/mL; MIC, P. aeruginosa strain 449 (FpvA type II) [1]: > 256 µg/mL; MIC, P. aeruginosa strain 451 (FpvA type II) [1]: > 256 µg/mL; MIC, P. aeruginosa strain 443 (FpvA type III) [2]: > 256 µg/mL; MIC, P. aeruginosa strain 450 (FpvA type III) [2]: > 256 µg/mL; MBC, P. aeruginosa strain 453 (FpvA type I) [3]: 0.25 µg/mL; MIC, P. aeruginosa strain 452 (FpvA type I) [3]: 4 µg/mL; MIC, P. aeruginosa strain 453 (FpvA type I) [3]: 0.25 µg/mL; MIC, P. aeruginosa strain MDR-M-3 (FpvA type I) [3]: 2 µg/mL; MIC, P. aeruginosa strain PAO1 (FpvA type I) [3]: 2 µg/mL

Q: Which results are given for colistin [reference compound]?
A: MBC (P. aeruginosa strains [4]): 0.5 µg/mL; MIC (P. aeruginosa strains [4]): 0.5 µg/mL

Q: With “PyS2-I-PlyPa03: PyS2 aa 1-209, GSx3 linker, P. aeruginosa lysin PlyPa03 (aa 2-144)” as the molecule, how does the “decrease in viability of Pseudomonas” value (P. aeruginosa strain 453; 1 h, iron-chelated CAA medium) read?
A: Its value is 3.6 log10.

Q: What about the “killing of Pseudomonas” value (P. aeruginosa strain 453; 2 h, 50% HuS) of the same molecule?
A: The value was 4.5 log10.

Q: What about the “killing of P. aeruginosa” value (P. aeruginosa strain 453; 2 h, 50% beractant (SURVANTA)) of the same molecule?
A: The value was 3.6 log10.

Q: What about the “killing of P. aeruginosa” value (P. aeruginosa strain 453; 4 h, iron-chelated CAA medium) of the same molecule?
A: Its value is 6.2 log10.

Q: And the “muralytic activity (clearing zones) on autoclaved P. aeruginosa” value [5]?
A: Its value is “degraded pseudomonal PG”.

Q: What about the activity towards strains (P. aeruginosa strains [6]; P. aeruginosa strains expressing FpvAII and FpvAIII) of the same molecule?
A: The activity towards strains was “ineffective”.

Q: And the MIC (P. aeruginosa strains [6]; strain 443, FpvAIII)?
A: Its MIC is greater than 256 µg/mL.

Q: And the MIC (P. aeruginosa strains [6]; strain 445, FpvAII)?
A: Its MIC is greater than 256 µg/mL.

Q: And the MIC (P. aeruginosa strains [6]; strain 447, FpvAI)?
A: The MIC was 4 µg/mL.

Q: And the MIC (P. aeruginosa strains [6]; strain 448, FpvAII)?
A: The MIC was greater than 256 µg/mL.

Q: What about the MIC (P. aeruginosa strains [6]; strain 450, FpvAIII) of the same molecule?
A: Its MIC is greater than 256 µg/mL.

Q: And the MIC (P. aeruginosa strains [6]; strain 451, FpvAII)?
A: The MIC was greater than 256 µg/mL.

Q: And the MIC (P. aeruginosa strains [6]; strain 453, FpvAI)?
A: Its MIC is 0.25 µg/mL.

Q: What about the MIC (P. aeruginosa strains [6]; strain AR465, FpvAI) of the same molecule?
A: The MIC was 2 µg/mL.

Q: And the MIC (P. aeruginosa strains [6]; strain AR468, FpvAII)?
A: The MIC was greater than 256 µg/mL.

Q: And the MIC (P. aeruginosa strains [6]; strain AR469, FpvAI)?
A: Its MIC is 4 µg/mL.

Q: And the MIC (P. aeruginosa strains [6]; strain AR470, FpvAI)?
A: The MIC was 8 µg/mL.

Q: What about the MIC (P. aeruginosa strains [6]; strain AR471, FpvAIII) of the same molecule?
A: Its MIC is greater than 256 µg/mL.

Q: And the MIC (P. aeruginosa strains [6]; strain AR474, FpvAI)?
A: Its MIC is 4 µg/mL.

Q: What about the MIC (P. aeruginosa strains [6]; strain PAO1, FpvAI) of the same molecule?
A: The MIC was 4 µg/mL.

Q: For “CEWL: Chicken egg white lysozyme, positive control for muralytic activity [reference compound]”, which “muralytic activity (clearing zones) on autoclaved P. aeruginosa” value [5] is on record?
A: Its value is “Clearing zones”.

Q: Which MBC (P. aeruginosa strains [4]; [7]) does the source give for C[C@@H](O)[C@H]1C(=O)N2C(C(=O)O)=C(S[C@@H]3CN[C@H](C(=O)N(C)C)C3)[C@H](C)[C@H]12 [Meropenem, meropenem, reference compound] here?
A: The MBC was 8 µg/mL (≈ 20.9 µM).

Q: What about the MIC (P. aeruginosa strains [4]; [8]) of the same molecule?
A: The MIC was 8 µg/mL (≈ 20.9 µM).

Q: What does the source list for PyS2-I-PlyPa03 lysocin?
A: MIC, P. aeruginosa strain 445 (FpvAII) [1]: > 256 µg/mL; MIC, P. aeruginosa strain 448 (FpvAII) [1]: > 256 µg/mL; MIC, P. aeruginosa strain 451 (FpvAII) [1]: > 256 µg/mL; MIC, P. aeruginosa strain AR468 (FpvAII) [1]: > 256 µg/mL; MIC, P. aeruginosa strain 443 (FpvAIII) [2]: > 256 µg/mL; MIC, P. aeruginosa strain 450 (FpvAIII) [2]: > 256 µg/mL; MIC, P. aeruginosa strain AR471 (FpvAIII) [2]: > 256 µg/mL; MIC, P. aeruginosa strain 447 (FpvAI) [3]: 4 µg/mL; MIC, P. aeruginosa strain 453 (FpvAI) [3]: 0.25 µg/mL; MIC, P. aeruginosa strain AR465 (FpvAI) [3]: 2 µg/mL; MIC, P. aeruginosa strain AR469 (FpvAI) [3]: 4 µg/mL; MIC, P. aeruginosa strain AR470 (FpvAI) [3]: 8 µg/mL; MIC, P. aeruginosa strain AR474 (FpvAI) [3]: 4 µg/mL; MIC, P. aeruginosa strain PAO1 (FpvAI) [3]: 4 µg/mL
